The values below come from publication PMC4145081 (2014).

Assay [1] deals with human SCARB2 on 293A-hSCARB2 cells pretreated with PNGase F (human) (UniProt Q14108). As to the kind of experiment: flow cytometry on cells; binding of EV71 to 293A-hSCARB2 cells pretreated with or without PNGase F; details in the Extended Experimental Procedures.
For assay [2] the target is unchanged.
Assay [3] has as its target EV71 mature virions (human enterovirus 71 (EV71)).
The target is the same in assay [4]. The source holds these as a separate data set.
A further assay deals with T1, EV71 mature virions (human enterovirus 71 (EV71)).
T1 chain 1: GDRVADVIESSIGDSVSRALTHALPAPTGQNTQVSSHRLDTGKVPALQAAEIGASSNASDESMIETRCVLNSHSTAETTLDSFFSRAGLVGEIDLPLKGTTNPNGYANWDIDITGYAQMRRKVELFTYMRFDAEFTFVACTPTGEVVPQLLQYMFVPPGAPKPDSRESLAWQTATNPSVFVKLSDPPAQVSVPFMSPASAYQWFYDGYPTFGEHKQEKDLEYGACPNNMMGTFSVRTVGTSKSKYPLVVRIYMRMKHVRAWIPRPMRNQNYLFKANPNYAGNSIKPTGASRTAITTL
T1 chain 2: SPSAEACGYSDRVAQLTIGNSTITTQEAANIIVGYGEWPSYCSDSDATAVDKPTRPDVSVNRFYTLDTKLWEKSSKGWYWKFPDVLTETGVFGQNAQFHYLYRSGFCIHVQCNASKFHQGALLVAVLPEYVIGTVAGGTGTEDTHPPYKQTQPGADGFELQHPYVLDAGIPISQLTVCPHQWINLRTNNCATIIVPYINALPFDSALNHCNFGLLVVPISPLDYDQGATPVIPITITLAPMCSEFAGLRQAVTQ
T1 chain 3: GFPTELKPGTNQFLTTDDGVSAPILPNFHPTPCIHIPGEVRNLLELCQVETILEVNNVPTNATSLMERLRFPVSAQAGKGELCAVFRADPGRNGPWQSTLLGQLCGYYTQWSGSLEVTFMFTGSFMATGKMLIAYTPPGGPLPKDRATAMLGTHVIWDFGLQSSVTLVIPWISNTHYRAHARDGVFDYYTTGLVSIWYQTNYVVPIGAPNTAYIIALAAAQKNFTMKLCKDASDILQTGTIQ
T1 chain 4: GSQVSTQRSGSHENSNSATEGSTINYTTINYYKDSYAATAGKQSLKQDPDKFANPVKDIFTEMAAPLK
Nature of the assay: ITC.

Chain of human SCARB2 on 293A-hSCARB2 cells pretreated with PNGase F (human) (Q14108 whole entry): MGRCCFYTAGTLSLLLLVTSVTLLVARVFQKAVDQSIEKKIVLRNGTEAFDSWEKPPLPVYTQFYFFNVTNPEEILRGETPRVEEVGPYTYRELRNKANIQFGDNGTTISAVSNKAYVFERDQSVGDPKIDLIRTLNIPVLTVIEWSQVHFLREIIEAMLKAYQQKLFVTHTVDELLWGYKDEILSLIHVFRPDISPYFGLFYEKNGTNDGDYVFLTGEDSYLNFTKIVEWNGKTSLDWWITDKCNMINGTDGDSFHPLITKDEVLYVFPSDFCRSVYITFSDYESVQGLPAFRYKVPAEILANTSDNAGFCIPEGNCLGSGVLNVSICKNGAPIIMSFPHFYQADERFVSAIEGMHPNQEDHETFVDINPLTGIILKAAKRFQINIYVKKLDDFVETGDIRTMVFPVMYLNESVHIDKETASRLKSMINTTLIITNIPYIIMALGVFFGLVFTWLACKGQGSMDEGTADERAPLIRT

On to EV71 mature virions (complex), for which, in assay [1], the reduction of binding against untreated cells came to 30%. Also, the decrease in infection efficiency of EV71-GFP on 293A-hSCARB2 cells pretreated with PNGase F, against untreated cells (GFP-positive cells 16 h post infection) in assay [2] was 40%.
“recombinant SCARB2-His-tag protein (ectodomain of scavenger receptor class B 2)” showed a conversion of mature virions (~160 S) into ~125 S particles (A particles) by sedimentation velocity AUC after 1 h at 37°C with SCARB2 at pH 7.4 in assay [3] of 5%. Further, the [3H]-labeled sphingosine removed from EV71 mature virions by excess recombinant SCARB2 (60:1) at pH 5.0, 37°C, 1-4 h in assay [4] was determined as 90%.
With WSQVHFLREIIEAMLKAYQQK [synthesized peptide of SCARB2 (aa 146-166)], the Kd with EV71 mature virions was 4.2 µM.
